What was measured:
HeLa Kyoto [1] = test: solubility in G1/S (NP-40 vs SDS abundance) (log2 ratio); higher = more soluble; conditions: cell cycle stage: G1/S
HeLa Kyoto [2] = test: melting temperature (median over replicates), in situ; higher = more thermally stable
HeLa Kyoto [3] = test: solubility change mitosis vs G1/S (difference of NP-40 vs SDS log2 ratios) (log2 ratio difference); higher = more soluble in mitosis
HeLa Kyoto [4] = test: thermal stability score vs G1/S (z-score of summed log2 fold changes over temperatures); higher = more thermally stable than in G1/S
[5] = cell cycle stage: early G1 (4.5 h after nocodazole release)
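Wherever melting temperature (median over replicates), in situ is given: HeLa Kyoto cells synchronized by double thymidine or nocodazole block, proteins quantified by TMT10plex mass spectrometry, three independent biological replicates.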
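Wherever solubility change mitosis vs G1/S (difference of NP-40 vs SDS log2 ratios) is given: synchronized HeLa Kyoto cells (double thymidine block for G1/S, nocodazole release for mitosis), protein amounts in NP-40 versus SDS lysates quantified by mass spectrometry, three biological replicates.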
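Wherever solubility in G1/S (NP-40 vs SDS abundance) is given: HeLa Kyoto cells arrested at G1/S by double thymidine block, proteins quantified by TMT10plex mass spectrometry in mild NP-40 versus SDS extracts, three biological replicates.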
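Wherever thermal stability score vs G1/S (z-score of summed log2 fold changes over temperatures) is given: synchronized HeLa Kyoto cells, proteins quantified by TMT10plex mass spectrometry, three biological replicates, mitosis taken 0.5 h after nocodazole release, G1/S directly after double thymidine block.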

Sequence | solubility in G1/S (log2) (HeLa Kyoto [1]) | melting temperature (HeLa Kyoto [2]; cell cycle stage: G1/S) | melting temperature (HeLa Kyoto [2]; cell cycle stage: mitosis) | solubility change mitosis (log2) (HeLa Kyoto [3]) | thermal stability score (HeLa Kyoto [4]; [5]) | thermal stability score (HeLa Kyoto [4]; cell cycle stage: mitosis)
MADLANEEKPAIAPPVFVFQKDKGQKSPAEQKNLSDSGEEPRGEAEAPHHGTGHPESAGEHALEPPAPAGASASTPPPPAPEAQLPPFPRELAGRSAGGSSPEGGEDSDREDGNYCPPVKRERTSSLTQFPPSQSEERSSGFRLKPPTLIHGQAPSAGLPSQKPKEQQRSVLRPAVLQAPQPKALSQTVPSSGTNGVSLPADCTGAVPAASPDTAAWRSPSEAADEVCALEEKEPQKNESSNASEEEACEKKDPATQQAFVFGQNLRDRVKLINESVDEADMENAGHPSADTPTATNYFLQYISSSLENSTNSADASSNKFVFGQNMSERVLSPPKLNEVSSDANRENAAAESGSESSSQEATPEKESLAESAAAYTKATARKCLLEKVEVITGEEAESNVLQMQCKLFVFDKTSQSWVERGRGLLRLNDMASTDDGTLQSRLVMRTQGSLRLILNTKLWAQMQIDKASEKSIRITAMDTEDQGVKVFLISASSKDTGQLYAALHHRILALRSRVEQEQEAKMPAPEPGAAPSNEEDDSDDDDVLAPSGATAAGAGDEGDGQTTGST [RANBP3] | 0.168 | 55.3 °C | 56.9 °C | -0.0529 | 2.19 | 1.81
MADLLGSILSSMEKPPSLGDQETRRKAREQAARLKKLQEQEKQQKVEFRKRMEKEVSDFIQDSGQIKKKFQPMNKIERSILHDVVEVAGLTSFSFGEDDDCRYVMIFKKEFAPSDEELDSYRRGEEWDPQKAEEKRKLKELAQRQEEEAAQQGPVVVSPASDYKDKYSHLIGKGAAKDAAHMLQANKTYGCVPVANKRDTRSIEEAMNEIRAKKRLRQSGEELPPTS [SPAG7] | 0.68 | 53.1 °C | 55 °C | -0.0144 | -1.04 | -1.5
MADMQNLVERLERAVGRLEAVSHTSDMHRGYADSPSKAGAAPYVQAFDSLLAGPVAEYLKISKEIGGDVQKHAEMVHTGLKLERALLVTASQCQQPAENKLSDLLAPISEQIKEVITFREKNRGSKLFNHLSAVSESIQALGWVAMAPKPGPYVKEMNDAAMFYTNRVLKEYKDVDKKHVDWVKAYLSIWTELQAYIKEFHTTGLAWSKTGPVAKELSGLPSGPSAGSCPPPPPPCPPPPPVSTISCSYESASRSSLFAQINQGESITHALKHVSDDMKTHKNPALKAQSGPVRSGPKPFSAPKPQTSPSPKRATKKEPAVLELEGKKWRVENQENVSNLVIEDTELKQVAYIYKCVNTTLQIKGKINSITVDNCKKLGLVFDDVVGIVEIINSKDVKVQVMGKVPTISINKTDGCHAYLSKNSLDCEIVSAKSSEMNVLIPTEGGDFNEFPVPEQFKTLWNGQKLVTTVTEIAG [CAP1] | 0.178 | 53.6 °C | 53.2 °C | 0.000121 | -0.637 | -0.459
MADQLYLENIDEFVTDQNKIVTYKWLSYTLGVHVNQAKQMLYDYVERKRKENSGAQLHVTYLVSGSLIQNGHSCHKVAVVREDKLEAVKSKLAVTASIHVYSIQKAMLKDSGPLFNTDYDILKSNLQNCSKFSAIQCAAAVPRAPAESSSSSKKFEQSHLHMSSETQANNELTTNGHGPPASKQVSQQPKGIMGMFASKAAAKTQETNKETKTEAKEVTNASAAGNKAPGKGNMMSNFFGKAAMNKFKVNLDSEQAVKEEKIVEQPTVSVTEPKLATPAGLKKSSKKAEPVKVLQKEKKRGKRVALSDDETKETENMRKKRRRIKLPESDSSEDEVFPDSPGAYEAESPSPPPPPSPPLEPVPKTEPEPPSVKSSSGENKRKRKRVLKSKTYLDGEGCIVTEKVYESESCTDSEEELNMKTSSVHRPPAMTVKKEPREERKGPKKGTAALGKANRQVSITGFFQRK [POLD3] | 0.0553 | 47 °C | 48.1 °C | -0.0027 | 0.776 | 2.8
MADSRDPASDQMQHWKEQRAAQKADVLTTGAGNPVGDKLNVITVGPRGPLLVQDVVFTDEMAHFDRERIPERVVHAKGAGAFGYFEVTHDITKYSKAKVFEHIGKKTPIAVRFSTVAGESGSADTVRDPRGFAVKFYTEDGNWDLVGNNTPIFFIRDPILFPSFIHSQKRNPQTHLKDPDMVWDFWSLRPESLHQVSFLFSDRGIPDGHRHMNGYGSHTFKLVNANGEAVYCKFHYKTDQGIKNLSVEDAARLSQEDPDYGIRDLFNAIATGKYPSWTFYIQVMTFNQAETFPFNPFDLTKVWPHKDYPLIPVGKLVLNRNPVNYFAEVEQIAFDPSNMPPGIEASPDKMLQGRLFAYPDTHRHRLGPNYLHIPVNCPYRARVANYQRDGPMCMQDNQGGAPNYYPNSFGAPEQQPSALEHSIQYSGEVRRFNTANDDNVTQVRAFYVNVLNEEQRKRLCENIAGHLKDAQIFIQKKAVKNFTEVHPDYGSHIQALLDKYNAEKPKNAIHTFVQSGSHLAAREKANL [CAT] | 0.174 | 58.2 °C | 57.9 °C | -0.000938 | -2.19 | -2.27
MADSSGQQGKGRRVQPQWSPPAGTQPCRLHLYNSLTRNKEVFIPQDGKKVTWYCCGPTVYDASHMGHARSYISFDILRRVLKDYFKFDVFYCMNITDIDDKIIKRARQNHLFEQYREKRPEAAQLLEDVQAALKPFSVKLNETTDPDKKQMLERIQHAVQLATEPLEKAVQSRLTGEEVNSCVEVLLEEAKDLLSDWLDSTLGCDVTDNSIFSKLPKFWEGDFHRDMEALNVLPPDVLTRVSEYVPEIVNFVQKIVDNGYGYVSNGSVYFDTAKFASSEKHSYGKLVPEAVGDQKALQEGEGDLSISADRLSEKRSPNDFALWKASKPGEPSWPCPWGKGRPGWHIECSAMAGTLLGASMDIHGGGFDLRFPHHDNELAQSEAYFENDCWVRYFLHTGHLTIAGCKMSKSLKNFITIKDALKKHSARQLRLAFLMHSWKDTLDYSSNTMESALQYEKFLNEFFLNVKDILRAPVDITGQFEKWGEEEAELNKNFYDKKTAIHKALCDNVDTRTVMEEMRALVSQCNLYMAARKAVRKRPNQALLENIALYLTHMLKIFGAVEEDSSLGFPVGGPGTSLSLEATVMPYLQVLSEFREGVRKIAREQKVPEILQLSDALRDNILPELGVRFEDHEGLPTVVKLVDRNTLLKEREEKRRVEEEKRKKKEEAARRKQEQEAAKLAKMKIPPSEMFLSETDKYSKFDENGLPTHDMEGKELSKGQAKKLKKLFEAQEKLYKEYLQMAQNGSFQ [CARS] | 0.0728 | 52.9 °C | 52.6 °C | -0.103 | 0.401 | -0.0333
MADTTPNGPQGAGAVQFMMTNKLDTAMWLSRLFTVYCSALFVLPLLGLHEAASFYQRALLANALTSALRLHQRLPHFQLSRAFLAQALLEDSCHYLLYSLIFVNSYPVTMSIFPVLLFSLLHAATYTKKVLDARGSNSLPLLRSVLDKLSANQQNILKFIACNEIFLMPATVFMLFSGQGSLLQPFIYYRFLTLRYSSRRNPYCRTLFNELRIVVEHIIMKPACPLFVRRLCLQSIAFISRLAPTVP [TMEM33] | 0.0522 | 55 °C | 53.5 °C | -0.177 | 2.25 | 2.45
MAEAHQAVAFQFTVTPDGIDLRLSHEALRQIYLSGLHSWKKKFIRFKNGIITGVYPASPSSWLIVVVGVMTTMYAKIDPSLGIIAKINRTLETANCMSSQTKNVVSGVLFGTGLWVALIVTMRYSLKVLLSYHGWMFTEHGKMSRATKIWMGMVKIFSGRKPMLYSFQTSLPRLPVPAVKDTVNRYLQSVRPLMKEEDFKRMTALAQDFAVGLGPRLQWYLKLKSWWATNYVSDWWEEYIYLRGRGPLMVNSNYYAMDLLYILPTHIQAARAGNAIHAILLYRRKLDREEIKPIRLLGSTIPLCSAQWERMFNTSRIPGEETDTIQHMRDSKHIVVYHRGRYFKVWLYHDGRLLKPREMEQQMQRILDNTSEPQPGEARLAALTAGDRVPWARCRQAYFGRGKNKQSLDAVEKAAFFVTLDETEEGYRSEDPDTSMDSYAKSLLHGRCYDRWFDKSFTFVVFKNGKMGLNAEHSWADAPIVAHLWEYVMSIDSLQLGYAEDGHCKGDINPNIPYPTRLQWDIPGECQEVIETSLNTANLLANDVDFHSFPFVAFGKGIIKKCRTSPDAFVQLALQLAHYKDMGKFCLTYEASMTRLFREGRTETVRSCTTESCDFVRAMVDPAQTVEQRLKLFKLASEKHQHMYRLAMTGSGIDRHLFCLYVVSKYLAVESPFLKEVLSEPWRLSTSQTPQQQVELFDLENNPEYVSSGGGFGPVADDGYGVSYILVGENLINFHISSKFSCPETDSHRFGRHLKEAMTDIITLFGLSSNSKK [CPT1A] | -0.177 | 50 °C | 50.1 °C | -0.0899 | 5.3 | 4.57
MAEAPPVSGTFKFNTDAAEFIPQEKKNSGLNCGTQRRLDSNRIGRRNYSSPPPCHLSRQVPYDEISAVHQHSYHPSGSKPKSQQTSFQSSPCNKSPKSHGLQNQPWQKLRNEKHHIRVKKAQSLAEQTSDTAGLESSTRSESGTDLREHSPSESEKEVVGADPRGAKPKKATQFVYSYGRGPKVKGKLKCEWSNRTTPKPEDAGPESTKPVGVFHPDSSEASSRKGVLDGYGARRNEQRRYPQKRPPWEVEGARPRPGRNPPKQEGHRHTNAGHRNNMGPIPKDDLNERPAKSTCDSENLAVINKSSRRVDQEKCTVRRQDPQVVSPFSRGKQNHVLKNVETHTGSLIEQLTTEKYECMVCCELVRVTAPVWSCQSCYHVFHLNCIKKWARSPASQADGQSGWRCPACQNVSAHVPNTYTCFCGKVKNPEWSRNEIPHSCGEVCRKKQPGQDCPHSCNLLCHPGPCPPCPAFMTKTCECGRTRHTVRCGQAVSVHCSNPCENILNCGQHQCAELCHGGQCQPCQIILNQVCYCGSTSRDVLCGTDVGKSDGFGDFSCLKICGKDLKCGNHTCSQVCHPQPCQQCPRLPQLVRCCPCGQTPLSQLLELGSSSRKTCMDPVPSCGKVCGKPLPCGSLDFIHTCEKLCHEGDCGPCSRTSVISCRCSFRTKELPCTSLKSEDATFMCDKRCNKKRLCGRHKCNEICCVDKEHKCPLICGRKLRCGLHRCEEPCHRGNCQTCWQASFDELTCHCGASVIYPPVPCGTRPPECTQTCARVHECDHPVYHSCHSEEKCPPCTFLTQKWCMGKHEFRSNIPCHLVDISCGLPCSATLPCGMHKCQRLCHKGECLVDEPCKQPCTTPRADCGHPCMAPCHTSSPCPVTACKAKVELQCECGRRKEMVICSEASSTYQRIAAISMASKITDMQLGGSVEISKLITKKEVHQARLECDEECSALERKKRLAEAFHISEDSDPFNIRSSGSKFSDSLKEDARKDLKFVSDVEKEMETLVEAVNKGKNSKKSHSFPPMNRDHRRIIHDLAQVYGLESVSYDSEPKRNVVVTAIRGKSVCPPTTLTGVLEREMQARPPPPIPHHRHQSDKNPGSSNLQKITKEPIIDYFDVQD [NFX1] | -0.786 | 50.5 °C | 50.3 °C | 0.35 | 1.02 | 0.0215

From the supplement of paper PMC5998384
